{
  "source": "the DeepSol protein solubility set",
  "data": [
    {"test": "soluble on expression in E. coli; label from the status in PepcDB or PDB records", "values": [
      {"sequence": "MKKLFGVGPDLLGDGKVLFEWSPKGNFLAAAGSKRKVNIFDRNGRLYDEVHFPPAEYPNPDGRACAAAQMQWDPAGEQLAILPAGNTHVFIWLAGNKEVQKIESEFKTQEFSCMAWSRNGMYLGVATVKGNVMMYNARERKKTPLVGKHTKKIVAAAWNKDNIMALAGQDKTVTLTDGVTGDTIKTFHLKDVPMDLCVSDKKEDGYSRREENTYSLNINRKTLYIMQCTAEGDRPLELAFLDTYGPIMKHSWFGDGYILLGYKNGYVAVVSSHSREISEEVHSGKYLDTLTDVTYCASLGRVAMAGANCVRVLDANADYNEIKGDAVDLDANQAIEKVGWTKDGQVLTVGTHNGYMHSFLASLPMVYDFHGTRVLYLTSLLEMTLLDVSRRQTVARIELENEPAFCGLGPSHAAVGMNNQAAFYSLGEKVGKVVQRREYLGTITAIKLNETQAAVLTGGHVVVHPISVEAGHAPDELDVVIPGPGQPANITCVALTPTFVITGSRTGTLSYYLSPDVTPVNEFRHDDGGIVRLFPQATGARLVFEDDKGALHLFNPVNDHVVAVPYTGRAETVMWDTSDTNVMVIGDGTALHSFLYVPVSLTGPQVQDLGKQAVPATHTPLTVCNGVVGCRLKSGAMDNVTLESHKMLQPGDAVARAAPAKRFAAALKLYKLRDAVECAKQLRQVESWRTLALAALDVLDIDTAINAYREIGDASMVLSLERVRQHEDRNLLSAHIMVLLEKDYGQAQELFLRSSVPRAALEMRMDLKHWTDALKLAEQLDPDAIATICKEHGAMLEMTGEYSNAKSHYQQALDALAVSVGPAQPDLEAACKAGIARTTLQLGDLRQGRQLAMQLNSQTLFKECALILEGLQQLTEAAEMYERAGQFERAASIYIQTKNFAAAAPLMARISSSKLQLQFAKAKEAEGRWQEAAAAYEAAGDMDAVVRLCLERLSQPQRAYAIVRKTQSVEAANQLSRFCLQSQDFGGAVEFLLMAGQMDQAFDIAMGHNEMDTFARIVAASAKPVDYQRIAQYYESRGEYDKAADMWSKCDQAPRAVQLYLKVGTNPALEKAVQVVEQTRSHQLGVLVLDYVNEEKDGTTRDEFRFKLNIAMGQFAEAARDALEMARFEQEEGNYRVAHDKLFGTVKQLEALNTKPPGELLRALMLLHSYTLVKSLIAINDHTTAARMLVRVARNISKFPKHIVPILTSTVIECHRANLKKTAFEYASMLMRPEYRDQVAVKYKKKIELMVRKPEKDPEELEEPLADCPFCNMPGPETELQCISCQNILPFDLATGKRMVLSDWAECPGCKFPASASQFIRIISAEGRCPM", "soluble on expression in E. coli": "not soluble"},
      {"sequence": "MSLKEISVVLVGIGGYGNKYVEYILREGREKGVRISGVVDPYPQNSRFYDELRSLNVPMYNTLEEFYSHHTADLAIISSPIHYHCEQTCTAVRNGSHVLCEKPAAATVKEVKKMIECREKYGKIVAIGYQWSYNPAVLKLKEDILAGKFGKPVLFKTLVLWPRDTAYYRRNSWAGKLKVNNRWVLDSVAGNATAHFLHNMLFLLGEKMEESAYPESMVAELYRANDIESFDTCALKMTVRKIPVLFFATHAVKERKGPVFEYRFEKARVICNYPEYPESEENLLVVYEDGRKEIYGPTDHGSMRKLWVVVDAARGRKEFICTLESAMAHTIAINGAHVSMKEIQDFPTELKRVEGEPPMIWVEGLKEAMERAYEEEKIFSELNLPWAKRGEEVKLENFEGLEGEITEGHHHHHH", "soluble on expression in E. coli": "soluble"},
      {"sequence": "MAHHHHHHMWNLNRLYRQNELSMHGVRNNHDIIVVRQVNISDKNNPDNYLHNQNNTNTSIKQNPQSVILNEKELLNLVQNFNHINRKHKGFCETSIFKNSTFSNTNNEHNGEDSFNTYLIIDKWKTKREFEKSKKEFEKLFAHKNHLYDKKMEDIYLNYEMYNNNYETVSAQNIFQKLYYFIFD", "soluble on expression in E. coli": "not soluble"},
      {"sequence": "MKGDHYSPNWPQLALSKKQSVNWVCERCGVQCLKPGEGKGLLKEERYRFRMAVHHCDYDPSNNSPSNLMALCSLCHLYYHRRQQGNISLGQLSLEFYLEHHHHHH", "soluble on expression in E. coli": "soluble"},
      {"sequence": "MHDVMELRNLSMVDLQTFNTQFSKITDRYWREIFRRQNDSHHPDHINVSRLQTANIITVLDENLPQGAIQELTITGLIPKPFSSRRCEVMRYLRERLSCSPDVELSFQGDQLRITNPTLNLENVPVLSMEKH", "soluble on expression in E. coli": "not soluble"},
      {"sequence": "TRSVKSCVGKEFCRFGTQYTTRLGIRLEKTFEYIDTPHKFKMGVSGCPRSCVESGVKDFGIISVENGFQIYIGGNGGTEVEKAEFLTTVETEDEVIKLCGALMQYYRETGIYAERTAPWLRRLGFENVKEVLLD", "soluble on expression in E. coli": "not soluble"},
      {"sequence": "MSLGRNPPPAIGQFWHVTDLHLDPTYHITDDHTKVCASSKGANASNPGPFGDVLCDSPYQLILSAFDFIKNSGQEASFMIWTGDSPPHVPVPELSTDTVINVITNMTTTIQSLFPNLQVFPALGNHDYWPQDQLPVVTSKVYNAVANLWKPWLDEEAISTLRKGGFYSQKVTTNPNLRIISLNTNLYYGPNIMTLNKTDPANQFEWLESTLNNSQQNKEKVYIIAHVPVGYLPSSQNITAMREYYNEKLIDIFQKYSDVIAGQFYGHTHRDSIMVLSDKKGSPVNSLFVAPAVTPVKSVLEKQTNNPGIRLFQYDPRDYKLLDMLQYYLNLTEANLKGESIWKLEYILTQTYDIEDLQPESLYGLAKQFTILDSKQFIKYYNYFFVSYDSSVTCDKTCKAFQICAIMNLDNISYADCLKQLYIKHNYEGHHHHHH", "soluble on expression in E. coli": "soluble"},
      {"sequence": "MHHRHLQVLRTDASGMPLEWIGYQEAAKLYYLEQVAYGCGSILFRLRGGINAKTGQRSRIEVNSIVATFGHANSGYKVDMGYVPPLNNAALFRRDGHICLYCGNLFRHSELSRDHIQPTSRGGSDTWNNVVTACKRCNNHKAGRTPEEAKMQLLAIPFTPTHAEYIYLQGRRVLADQMEFLKAHFPRKSPLHQRLSLEHHHHHH", "soluble on expression in E. coli": "not soluble"},
      {"sequence": "MIIREATVQDYEEVARLHTQVHEAHVKERGDIFRSNEPTLNPSFFQAAVQGEKSTVLVFVDEREKIGAYSVIHLVQTPLLPTMQQRKTVYISDLCVDETRRGGGIGRLIFEAIISYGKAHQVDAIELDVYDFNDRAKAFYHSLGMRCQKQTMELPLLEHHHHHH", "soluble on expression in E. coli": "soluble"},
      {"sequence": "SLAHVGTWDWDITNETLAWTDETYRIFGVKPQEFKATYEAFLFYIHADDRQAVIDAVNDAINNDSSYSIKHRVIRPSGEIREVLEKGQVLRDENGKASRIIGAVLDIT", "soluble on expression in E. coli": "not soluble"},
      {"sequence": "MRMSKMARKDPTIEFCQLGLDTFETKYITMFGMLVSCSFDKPAFISFVFSDFTKNDIVQNYLYDRYLIDYENKLELNEGFKAIMYKNQFETFDSKLRKIFNNGLRDLQNGRDENLSQYGIVCKMNIKVKMYNGKLNAIVRECEPVPHSQISSIASPSQCEHLRLFYQRAFKRIGESAISRYFEEYRRFFPIHRNGSHLA", "soluble on expression in E. coli": "soluble"},
      {"sequence": "PKYTKSVLKKGDKTNFPKKGDVVHCWYTGTLQDGTVFDTNIQTSAKKKKNAKPLSFKVGVGKVIRGWDEALLTMSKGEKARLEIEPEWAYGKKGQPDAKIPPNAKLTFEVELVDID", "soluble on expression in E. coli": "soluble"},
      {"sequence": "MDAIVMAGGFGQRLGMGEKPCVELLGKPLITYVIDNLRASKNIDRVFVAVSPVTPKTEIMIQERYKGEVQVIRTFGGNYVGDMIHAVETSNTAGPVMIIMSDLPLVNPDLIDSVIEKYREEGKPALSVYVPINVCRGTGTRPDTVFNKDGKLIVPAGVNILDSSQIRKEQEDFNLILDNPRLAINVNTVKDLQRCKDLLQCSN", "soluble on expression in E. coli": "soluble"}
    ]}
  ]
}
